From patent publication US20050095257A1 come the findings set out here.

The target in the test is murine CCR6 expressed on HEK293 cells (HEK293/CCR6) (murine) (UniProt O54689). Put plainly: cell-based or functional assay.

Consider “mDF3βsFv38, murine β-defensin 3 fusion with sFv38 (from UniProt Q9WTL0 23-63)”, for which the chemotaxis of murine bone marrow derived immature DC, peak activity worked out at 100 ng/mL.

In turn, “mDF2βsFv38, murine β-defensin 2 fusion with sFv38 (from UniProt P82020 21-71)” came in with a chemotaxis of murine bone marrow derived immature DC, peak activity of 10 ng/mL.
